The text below walks through data of paper PMC12251713, “The Novel Transcription Factor BnaA01.KAN3 Is Involved in the Regulation of Anthocyanin Accumulation Under Phosphorus Starvation”.

For this data set, the target named is T1, BnaA01.KAN3-His (Brassica napus cv. Zhongshuang 11, UniProt A0A816XN48 1-312).
T1 sequence: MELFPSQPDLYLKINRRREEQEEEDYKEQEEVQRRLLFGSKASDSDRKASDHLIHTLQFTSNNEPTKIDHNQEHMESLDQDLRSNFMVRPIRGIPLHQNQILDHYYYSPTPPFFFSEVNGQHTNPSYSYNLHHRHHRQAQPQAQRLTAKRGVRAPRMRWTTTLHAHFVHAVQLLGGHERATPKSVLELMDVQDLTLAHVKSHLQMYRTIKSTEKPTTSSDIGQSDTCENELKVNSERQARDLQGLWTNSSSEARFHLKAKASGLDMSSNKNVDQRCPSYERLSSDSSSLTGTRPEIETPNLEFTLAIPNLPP
The experiment in a line: EMSA; LightShift Chemiluminescent EMSA Kit (Thermo 20148); buffer, salt, pH and temperature not stated. As to conditions: protein: recombinant; tags: His (pET28a); label: biotin 3' end; blunt.

B1: P1BS EMSA probe (dsDNA)
DNA 1: AGACTTTGATTTGCATTATTGCATATACGTAGTAGTATAATGGTACTATC
DNA 2: GATAGTACCATTATACTACTACGTATATGCAATAATGCAAATCAAAGTCT
In the case of B1, the binding result is given as “binds”.
